Laboratory results from patent US20050287518A1.

Legend:
[1] = target: GFP-Rac1 fusion (EGFP mutant, 6His construct) bound to GTPγS [GFP: P42212]; test: FRET titration in solution: 200 nM GFP-Rac1-GTPγS, varied Alexa-PBD, Alexa/GFP emission ratio fit to Y=A*X/(Kd+X)
[2] = target: GFP-Rac1 fusion (EGFP mutant, 6His construct) bound to GTPγS [GFP: P42212]; test: FRET in solution at saturating (1 micromolar) Alexa-PBD, GFP-Rac1 loaded with varied GTPγS

In the case of “Alexa-PBD (PBD, fragment of human PAK1, residues 65-150, with a single cysteine added in the penultimate N-terminal position, C-terminal 6His fusion, labeled with Alexa 546) (from UniProt Q13153 65-150)”, the Kd [1] is reported as 1.1 µM and the fold change of corrected Alexa/GFP emission ratio [2] is reported as 4 fold.
